Data set [1] deals with Akt kinase, endogenous protein of immortalized human Schwann cells (human) (UniProt P31749). The experiment in a line: cell-based or functional assay.
Data set [2] has as its system bacterially-expressed PDNF (recombinant full-length PDNF, clone 19Y, expressed in E. coli).
In data set [3] the test system is Schwann cells. The class given is cell-based, human. The note with it: 100 μM H2O2, 24 hours. As to the method:
(§1) Immortalized human Schwann cells (54) were maintained in DMEM supplemented with 10% FCS and penicillin/streptomycin at 37° C. in 5% CO2. Infections were performed with T. cruzi trypomastigotes (Silvio strain) at 2×10^5 parasites/ml or at a parasite:cell ratio of 50:1. After 2 or 3 hours, monolayers were washed to remove unattached parasites and cells were then maintained in medium containing 2% FCS for 3 to 5 days to complete the intracellular infection cycle.
(§2) Infected Schwann cells, Sc-Red cells, and Sc-PDNF cells were treated for 24 hours with 100 to 500 μM H2O2 with or without pretreatment with the Akt inhibitor Akti VIII (10 μM), fixed, and visualized by fluorescence microscopy after staining with DAPI and TUNEL reagents with the In Situ Cell Death Detection kit (Roche). Cell survival was measured by MTT-based CellTiter kit (Promega). Alternatively, Sc-Red and Sc-PDNF cells were grown for 4 days in DMEM, 1% bovine serum albumin (BSA) with or without TNF-α (20 ng/ml) and TGF-β1 (40 ng/ml) and with or without Akti VIII (10 μM).

Data set [4] relates to Schwann cells. The experiment in a line: TNF-α and TGF-β induced apoptosis, TUNEL assay. It counts as cell-based, human. The note with it: TNF-α 20 ng/ml and TGF-β 40 ng/ml. How it is done:
as §2

Data set [5] concerns Akt. The experiment in a line: Akt-dependent phosphorylation of PDNF in Schwann cells (immunoprecipitation with TCN-2, Western blotting). The class given is cell-based, human. How it is done: To provide further evidence that the phosphorylation of PDNF depended on host […], T. cruzi-infected Schwann cells were treated with LY294002, a pharmacological inhibitor of PI3K, which phosphorylates and activates Akt (10), and with Akti VIII, a specific allosteric inhibitor of Akt that prevents the phosphorylation of Akt at Ser^473 and Thr^308, which is critical for the activation of Akt (25). Lysates of treated cells were assayed for phosphorylated Akt (pAkt) and, after immunoprecipitation with a PDNF-specific antibody, for the presence of Akt-phosphorylated substrates. […] The conclusion that PDNF was a substrate of Akt was further reinforced by in vitro kinase assays.
(§3) Cell monolayers were lysed with lysis buffer (20 mM tris-HCl (pH 7.5), 150 mM NaCl, 1 mM EDTA, 1% Triton X-100, 2.5 mM sodium pyrophosphate, 1 mM glycerophosphate, 1 mM Na3VO4, 1 μg/mL leupeptin and 1 mM phenylmethylsulfonyl fluoride (PMSF)) on ice for 10 min, cleared by centrifugation (12,000×g for 10 min at 4° C.) and immunoprecipitated with an antibody specific for Akt-phosphorylated substrate or with TCN-2 at 4° C. overnight Immunoprecipitates were collected with protein G-Sepharose for 2 hours at 4° C., washed with lysis buffer, and resuspended in SDS-sample buffer for SDS-PAGE and Western blotting analysis. In other experiments, total cell lysates (30 to 50 μg of protein) were resolved by SDS-PAGE, transferred to nitrocellulose membranes, and incubated with the relevant primary antibodies, followed by incubation with HRP-conjugated secondary antibody and visualization by ECL.
A general note: A western blot detects proteins with antibodies after separation by electrophoresis.

Data set [6] relates to Schwann cells. The experiment in a line: H2O2-induced apoptosis, TUNEL assay. It counts as cell-based, human. As to the method:
as §2

The test system of data set [7] is Akt. The experiment in a line: Western blotting of pAkt (activation of Akt) in Schwann cells. The class given is cell-based, human. The note with it: Schwann cell-expressed PDNF compared to control transfected cells. How it is done: as §1
The coding region of the gene encoding PDNF (formerly T. cruzi neuraminidase, or TCNA) was amplified from the TS19y clone (20) with the primers TCNA-F: 5′-[…]-3′ (SEQ ID NO: 11) and TCNA-R: 5′-[…] (SEQ ID NO: 12) (restriction sites for XhoI and SacII are underlined) and inserted into the pIRES2-DsRed-Express vector (Clontech). Selected recombinant plasmids were purified with the Qiagen kit, sequenced at Tufts University Core facility, and used for transfections. Cells were plated at 1×10^5 cells/ml in 100-mm plates 20 hours before their transfection with 10 μg of total DNA per plate with the FuGENE HD transfection reagent (Roche Diagnostics) as recommended by the manufacturer. Transfected cells were selected with G418 (1 mg/ml) and analyzed for the presence of PDNF by Western blotting and trans-sialidase activity assays (26). […]

In data set [8] the test system is Akt3. The experiment in a line: cDNA microarray, Sc-PDNF vs Sc-Red cells: Akt3 mRNA. The note with it: Schwann cells expressing PDNF vs control cells. It counts as cell-based, human. How it is done: (§4) These analyses were performed as described previously (55, 56). The concentration and quality of total RNA isolated from Sc-Red cells and Sc-PDNF cells were estimated by spectrophotometry (A260 nm/A280 nm of 1.9 to 2.1) and by agarose gel electrophoresis. Hybridization and data analysis were performed by the Tufts Expression Array Core with cDNAs prepared from Sc-Red cells and Sc-PDNF cells labeled with aminoallyl (aa)-dUTP Cy3 or Cy5 dyes, respectively. The two differently dye-labeled cDNAs were hybridized with the same microarray slide containing 48,500 human genes (Microarrays Inc) for 16 hours. After washing, the slide was scanned at 550 nm and 649 nm for Cy-3 and Cy-5 dyes, respectively, in a ScanArray 4000 scanner (PerkinElmer). Images were overlaid and analyzed with QuantArray spot quantification software (Packard BioChip Technologies). The ratio of both fluorescence intensities for each spot reflected the ratio of each gene expressed in the control and treatment samples. […] For each gene, ratios of red (Cy-5) over green (Cy-3) intensities (I) were calculated and normalized through a Lowess Fit of the log2 ratios (log2(Icy-5/Icy-3)) over the log2 of the total intensity (log2(Icy-5. Icy-3)). Mean ratios were calculated from the duplicate spots, and only values with a covariance (CV) b0.5 were further taken into account. […]

For a further data set, the system named is caspase-9. The experiment in a line: cDNA microarray, Sc-PDNF vs Sc-Red cells: caspase-9 mRNA. The class given is cell-based, human. The note with it: PDNF-expressing Schwann cells vs control cells. How it is done: as §4
Data set [9] has as its system transcription factor FOXO. The experiment in a line: cDNA microarray, Sc-PDNF vs Sc-Red cells: FOXO mRNA. It counts as cell-based, human. The note with it: PDNF-expressing Schwann cells vs control cells. As to the method: as §4
Data set [10] has as its system mitochondrial protein BAX. The experiment in a line: cDNA microarray, Sc-PDNF vs Sc-Red cells: BAX mRNA. It counts as cell-based, human. The note with it: PDNF-expressing Schwann cells vs control cells. How it is done:
as §4

The subject of another data set is other protein kinases. The experiment in a line: cDNA microarray, Sc-PDNF vs Sc-Red cells: other protein kinase mRNAs. The note with it: Schwann cells expressing PDNF vs control cells. It counts as cell-based, human. How it is done:
as §4

In data set [11] the test system is Akt3. The experiment in a line: Real-time PCR, Sc-PDNF vs Sc-Red cells: Akt3. It counts as cell-based, human. The note with it: PDNF-transfected Schwann cells vs control cells. As to the method:
(§5) These assays were performed as described previously (57, 58). In brief, RNA was isolated with the Trizol reagent and chloroform, cDNA was synthesized from 500 ng of total RNA with Superscript III reverse transcriptase primed with random hexamers, and quantitative PCR reactions were performed with QuantiTect SYBR Green PCR kit (Qiagen) on an Applied Biosystems 7300 Real-Time PCR system. Conditions for the PCR reactions were: 95° C. for 15 min, followed by 50 cycles at 94° C. for 15 s, 54° C. for 30 s, and 72° C. for 45 s, concluding with a dissociation stage to measure amplification product specificity. Primers used to calculate Akt expression were synthesized as described previously (57). Experiments were performed in triplicate, and fold differences were calculated by the 2^−ΔΔCt method (ΔΔCt=(Cttarget gene−Ctb-actin)treated−(Cttarget gene−Ctb-actin)untreated) as described previously (58).

A further data set deals with Akt2. The experiment in a line: Real-time PCR, Sc-PDNF vs Sc-Red cells: Akt2. The class given is cell-based, human. The note with it: PDNF-expressing cells vs control cells, p<0.05. How it is done: as §5
Data set [12] deals with Akt. The experiment in a line: Coimmunoprecipitation of PDNF and Akt. It counts as binding. The note with it: lysates of T. cruzi-infected human Schwann cells, 4 days; IP with mAb TCN-2. How it is done:
We infected Schwann cells with T. cruzi for 2 hours, removed parasites from the medium overlay by washing, and cultured the cells for 4 days to allow intracellular parasites to differentiate, grow, and multiply. Lysates of uninfected and infected Schwann cells were immunoprecipitated with the monoclonal antibody (mAb) TCN-2, which is specific for the C-terminal tandem repeat unit of PDNF (FIG. 1A) (23), and Western blots of these immunoprecipitates were incubated with PDNF— and Akt-specific antibodies.
as §3

[13] abbreviates: T. cruzi-infected Schwann cells treated with inhibitor for 24 hours.

For the molecule “PDNF expressed in the cytosol of human Schwann cells transfected with pIRES2-DsRed-Express carrying (enzyme)”, in [1], the abundance of pAkt (Ser^473), Western blot with scanning densitometry, Sc-PDNF against control transfected cells was 5 fold and the abundance of pAkt (Thr^308), Western blot with scanning densitometry, Sc-PDNF against control transfected cells came out at 6 fold.

For “Akt kinase, endogenous protein of immortalized human Schwann cells”, the “in vitro kinase assay: phosphorylation of bPDNF by immuno-purified Akt, Western blot with antibody against Akt-phosphorylated substrates” value in data set [2] is “generated phosphorylated PDNF in vitro in a dose-dependent and ATP-dependent manner”.

Regarding `O=c1[nH]c2ccccc2n1C1CCN(Cc2ccc(-c3nc4cc5[nH]cnc5cc4nc3-c3ccccc3)cc2)CC1` [Akti VIII], the “effect of Akt inhibitor on survival-promoting activity of PDNF” value in the data set with Schwann cells [3] (Sc-PDNF cells pretreated with Akti VIII 10 μM) is given as “abrogated”. In addition, in the data set on Schwann cells [3] (T. cruzi-infected Schwann cells pretreated with Akti VIII 10 μM), the “effect of Akt inhibitor on resistance of infected cells to oxidative stress” value is “lost”. In addition, the “effect of Akt inhibitor on anti-apoptotic effect of intracellular PDNF” value in the data set on Schwann cells [4] (Akti VIII 10 μM) is “abolished”. Moreover, in the data set on Akt [5] (Schwann cells transfected with plasmid encoding PDNF, inhibitor for 24 hours), the “extent of the phosphorylation of PDNF” value is given as “substantially decreased”. In addition, in the data set with Akt [5] (setting [13]), the “abundance of activated Akt (pAkt)” value is “reduction in abundance of activated Akt”, the “abundance of unphosphorylated PDNF” value was “did not affect” and the “phosphorylation of PDNF” value was “inhibition of the phosphorylation of PDNF”.

Regarding “PDNF expressed in the cytosol of human Schwann cells transfected with pIRES2-DsRed-Express carrying”, the apoptosis (TUNEL assay) of Sc-PDNF cells in TNF-α (20 ng/ml) and TGF-β (40 ng/ml) in data set [1] is 2.5 % of cells.

For the molecule `OO` [H2O2, hydrogen peroxide], in the data set on Schwann cells [3], the “cell survival of uninfected Schwann cells” value was “only half of the cells survived”. Also, the “apoptosis induced in uninfected Schwann cells” value in the data set on Schwann cells [6] (100 μM H2O2, 6 hours) is ~25%. Also, the “uninfected cells with apoptosis-related DNA damage” value in the data set with Schwann cells [6] (500 μM H2O2, 24 hours) was ~90%.

B1: PDNF: Trypanosoma cruzi membrane-bound neuraminidase/trans-sialidase; clone 19Y expressed in Schwann cell cytosol from pIRES2-DsRed-Express plasmid (protein, listed as Trypanosoma cruzi)
chain: MGKTVVVASRMFWLMFFVPLLLAICPSEPAYALAPGSSRVELFKRKNSTVPFEDKAGKVTERVVHSFRLPALVNVDGVMVAIADARYDTSNDNSLIDTVAKYSVDDGETWETQIAIKNSRVSSVSRVVDPTVIVKGNKLYVLVGSYYSSRSYWSSHGDARDWDILLAVGEVTKSTAGGKITASIKWGSPVSLKKFFPAEMEGMHTNQFLGGAGVAIVASNGNLVYPVQVTNKKKQVFSKIFYSEDDGKTWKFGKGRSDFGCSEPVALEWEGKLIINTRVDWKRRLVYESSDMEKPWVEAVGTVSRVWGPSPKSNQPGSQSSFTAVTIEGMRVMLFTHPLNFKGRWLRDRLNLWLTDNQRIYNVGQVSIGDENSAYSSVLYKDDKLYCLHEINTDEVYSLVFARLVGELRIIKSVLRSWKNWDSHLSSICTPADPAASSSESGCGPAVTTVGLVGFLSGNASQNVWEDAYRCVNASTANAERVRNGLKFAGVGGGALWPVSQQGQNQRYRFANHAFTLVASVTIHEAPRAASPLLGASLDSSGGKKLLGLSYDEKHQWQPIYGSTPVTPTGSWETGKRYHLVLTMANKIGSVYIDGELLEGSGQTVVPDGRTPDISHFYVGGYKRSDMPTISHVTVNNVLLYNRQLNTEEIRTLFLSQDLIGTEAHM
As to B1, in the data set with Akt [7], the “increase in the abundance of pAkt (Ser473)” value is given as “five-fold” and the “increase in the abundance of pAkt (Thr308)” value is given as “six-fold”. The “Akt3 mRNA more abundant” value in the data set with Akt3 [8] was ~3 fold. Also, the “caspase-9 mRNA reduced in abundance” value in the data set with caspase-9 was ~5.0 fold. Besides, in data set [9], the “FOXO mRNA reduced in abundance” value is reported as ~4.0 fold. Further, in data set [10], the “BAX mRNA reduced in abundance” value is ~2.6 fold. The “abundance of the mRNAs for other protein kinases” value in the data set with other protein kinases is on record as “unaltered”. Moreover, the “increased expression of the gene encoding Akt3” value in the data set on Akt3 [11] is reported as 3 fold. Also, in the data set on Akt2, the “increase in the mRNA for Akt2” value is given as ~5.0 fold. Further, in the data set with Schwann cells [3] (Schwann cells transfected with plasmid encoding PDNF), the “protection from H2O2-induced oxidative stress” value is “protected from H2O2-induced oxidative stress”. Moreover, the “cells that underwent apoptosis (TUNEL-positive)” value in the data set with Schwann cells [4] (PDNF in Schwann cell cytosol, 4 days) was 2.5%±0.7. Moreover, in the data set with Akt [12], the “physical interaction between PDNF and Akt” value is “coimmunoprecipitated PDNF and Akt”.

The values above are taken from US20120245221A1, “ANTI-APOPTOTIC AGENTS AND USES THEREOF” (priority 2009, published 2012).
